Test results taken from FireProtDB (doi:10.1074/jbc.274.2.717).
Values joined by “and” are separate entries in the source; they are usually repeats but may differ in a detail not shown here. Equal entries are not always repeated.

Settings: Homo sapiens, pH 8.7, Thermal, DSC, reversible: yes, whole UniProt chain shown

B1: Alpha-2-macroglobulin receptor-associated protein wild type, P30533 (protein)
chain: MAPRRVRSFLRGLPALLLLLLFLGPWPAASHGGKYSREKNQPKPSPKRESGEEFRMEKLNQLWEKAQRLHLPPVRLAELHADLKIQERDELAWKKLKLDGLDEDGEKEARLIRNLNVILAKYGLDGKKDARQVTSNSLSGTQEDGLDDPRLEKLWHKAKTSGKFSGEELDKLWREFLHHKEKVHEYNVLLETLSRTEEIHENVISPSDLSDIKGSVLHSRHTELKEKLRSINQGLDRLRRVSHQGYSTEAEFEEPRVIDLWDLAQSANLTDKELEAFREELKHFEAKIEKHNHYQKQLEIAHEKLRHAESVGDGERVSRSREKHALLEGRTKELGYTVKKHLQDLSGRISRARHNEL
For B1, the Tm (Gly 20 mM, transition: 2) was 65.8 °C, the “unfolding enthalpy (calorimetric)” value (Gly 20 mM, transition: 2) was 56 kcal/mol and the “unfolding enthalpy (calorimetric)” value (Glycine 20 mM, transition: 2) was 45 kcal/mol and 41 kcal/mol and 59 kcal/mol. For the same protein, the “unfolding enthalpy (calorimetric)” value (Glycine 20 mM, transition: 4) was 42 kcal/mol and 41 kcal/mol.
